Entries after “also recorded” stand apart in the source; their conditions may differ.
Tests used:
Fg Bβ chain = target: T1, Fg Bβ chain (Homo sapiens, UniProt P02675); test: Western ligand blot with biotin labeled rSdrG(50-597); assay type: binding
T1 construct: recognized the mature recombinant Bβ chain (residues 1-462); made in house; host or cells: E. coli
T1 sequence (P02675 31-491): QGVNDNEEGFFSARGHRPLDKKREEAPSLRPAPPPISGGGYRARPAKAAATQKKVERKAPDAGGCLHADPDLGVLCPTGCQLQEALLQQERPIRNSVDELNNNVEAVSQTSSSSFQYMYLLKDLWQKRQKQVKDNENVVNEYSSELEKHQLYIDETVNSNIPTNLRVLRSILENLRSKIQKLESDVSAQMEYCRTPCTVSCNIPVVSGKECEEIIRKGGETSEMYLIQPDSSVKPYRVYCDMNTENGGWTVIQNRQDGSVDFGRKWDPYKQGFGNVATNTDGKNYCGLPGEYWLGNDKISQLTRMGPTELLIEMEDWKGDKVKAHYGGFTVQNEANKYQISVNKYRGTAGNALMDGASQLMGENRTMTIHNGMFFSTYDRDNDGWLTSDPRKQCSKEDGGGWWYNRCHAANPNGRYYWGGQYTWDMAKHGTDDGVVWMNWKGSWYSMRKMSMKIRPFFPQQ
Excerpt: Construction of Fg Bβ Chain Truncates—An E. coli strain harboring plasmid p668 which contains the cDNA for the Fg Bβ chain was kindly provided by Dr. Susan T. Lord (University of North Carolina, Chapel Hill, N.C.). The 1525 bp fragment from p668 was subcloned into the plasmid pQE30 to produce recombinant mature Bβ chain with a N-terminal His-tag. Additional Bβ chain constructs (FIG. 3A) were made by subcloning into either pQE30 or pGEX-KG (Pharmacia) to produce recombinant proteins with a N-terminal His-tag or Glutathione S-transferase (GST) fusion.
Western Ligand Blot Analysis—Whole E. coli lysates harboring each respective Fg Bβ chain construct were fractionated by SDS-PAGE and the separated proteins were transferred to nitrocellulose membrane with a semi-dry transfer cell (Bio-Rad). The membrane was incubated overnight with 5% (w/v) non-fat dry milk in PBS, pH 7.5 at 4° C. to saturate non-specific binding sites. After blocking, the membrane was washed three times with PBST and then incubated with biotin labeled rSdrG(50-597) (0.5 μM) for 1 h at room temperature. rSdrG(50-597) was biotin labeled using EZ Link-sulfo-NHS-LC biotin (Sigma) according to the manufacturers' instructions. After three more washes with PBST, the blot was incubated with a 1:5000 dilution of streptavidin-AP conjugated for 1 h at room temperature and developed with 5-bromo-4-chloro-3-indolyl phosphate (BCIP) and nitro blue tetrazolium (NBT) (Biorad) in carbonate:bicarbonate buffer (14 mM Na2CO3, 36 mM NaHCO3, 5 mM MgCl2:6H2O, pH 9.8) for ˜15 min at room temperature.

[1] = test system: fibronectin, collagen types I and IV, vitronectin, laminin and thrombospondin; test: ELISA: ligand specificity on other immobilized ECM proteins; assay type: binding; conditions: data not shown
[2] = test system: thrombin-induced fibrin clot formation; test: Fg coagulation assay (fibrin clot inhibition); assay type: biochemical; conditions: 3.0 μM Fg, 0-6.0 μM protein, 1.0 NIH unit/ml thrombin, OD 405 nm
Method: Fg Coagulation Assay—150 μl of a 3.0 μM Fg solution was incubated with 10 μl of rSdrG(50-597) or BSA (1.0-6.0 μM) and 50 μl of thrombin (Sigma) (1.0 NIH unit/ml) in microtiter wells at room temperature. Clot formation was monitored by measuring the increase in optical density (OD) at 405 nm over time and expressed as Vmax (mOD/min). A plate reader (Thermomax microplate reader, SOFTmax software, Molecular Devices) was used to monitor OD. Using the kinetic mode with one wavelength (L1=405 nm), samples were read every 10 sec for 5 min. In this assay, 1.0 NIH unit/ml of thrombin incubated with 3.0 μM Fg produced a fibrin clot in 5 min at room temperature.
rSdrG(50-597) Inhibits Thrombin-Induced Fibrin Clot Formation—In the final stages of the blood coagulation cascade, thrombin cleaves Fg releasing the fibrinopeptides and producing fibrin monomers. These fibrin monomers then polymerize to form a fibrin clot (20). […] To test this hypothesis, we designed a fibrin clot inhibition assay in which 3.0 μM Fg, 0-6.0 μM rSdrG(50-597) and 1.0 NIH unit/ml of thrombin were incubated and the formation of a fibrin clot was monitored by measuring the increase in optical density at 405 nm.

[3] = test system: thrombin catalyzed release of fibrinopeptides A and B; test: Release of fibrinopeptides by thrombin, HPLC; assay type: biochemical; conditions: for Percentage of FpB released: Fg 0.3 μM
Method: Release of Fibrinopeptides by Thrombin—The thrombin catalyzed release of fibrinopeptides A and B was analyzed as follows. Fg solutions were diluted to 0.3 μM in 20 mM HEPES (pH 7.4), 150 mM NaCl, 5 mM ε-aminocapriotic acid, and 1.0 mM CaCl2. ε-aminocapriotic acid was included to inhibit any possible plasmin contaminant activity. […] The tubes were mixed by inversion and 500 μl aliquots were removed for the 15 and 60 min time points. The aliquots were incubated at room temperature and then immersed in boiling water for 15 min to halt the reaction. The aliquots were stored on ice for the remainder of the time course. At the end of the reaction the samples were centrifuged for 15 min at 4° C., and the supernatants were removed and stored at −20° C. overnight prior to analysis by high performance liquid chromatography.
The fibrinopeptides released were monitored by reverse phase HPLC essentially as described (19). The samples were loaded onto a Waters Delta-Pak C18 column equilibrated with buffer A (25 mM NaH2PO4/Na2HPO4, pH 6.0). Fibrinopeptides were eluted with a linear gradient from 100% buffer A to 40% buffer B (Buffer A with 50% acetonitrile) and monitored by absorbance at 205 nm. Fibrinopeptide peak area was determined using the software Waters Millennium^32.

B1: rSdrG(50-597): recombinant His-tagged A region (residues 50-597) of SdrG, a fibrinogen-binding MSCRAMM from S. epidermidis (protein)
chain: HHHHHHAEENTVQDVKDSNMDDELSDSNDQSSNEEKNDVINNSQSINTDDDNQIKKEETNSNDAIENRSKDITQSTTNVDENEATFLQKTPQDNTQLKEEVVKEPSSVESSNSSMDTAQQPSHTTINSEASIQTSDNEENSRVSDFANSKIIESNTESNKEENTIEQPNKVREDSITSQPSSYKNIDEKISNQDELLNLPINEYENKVRPLSTTSAQPSSKRVTVNQLAAEQGSNVNHLIKVTDQSITEGYDDSDGIIKAHDAENLIYDVTFEVDDKVKSGDTMTVNIDKNTVPSDLTDSFAIPKIKDNSGEIIATGTYDNTNKQITYTFTDYVDKYENIKAHLKLTSYIDKSKVPNNNTKLDVEYKTALSSVNKTITVEYQKPNENRTANLQSMFTNIDTKNHTVEQTIYINPLRYSAKETNVNISGNGDEGSTIIDDSTIIKVYKVGDNQNLPDSNRIYDYSEYEDVTNDDYAQLGNNNDVNINFGNIDSPYIIKVISKYDPNKDDYTTIQQTVTMQTTINEYTGEFRTASYDNTIAFSTSSGQGQGDLPPE
Fg Bβ chain; 0.5 μM biotin labeled protein
  binding to truncates lacking the N-terminal 25 residues, rβ(25-95) and rβ(25-195): failed to bind
  recognition of recombinant Bβ chain (1-462) and truncates 1-341, 1-220, 1-195, 1-95: recognized
Fg Bβ chain; native Fg chains, data not shown
  recognition of Fg chains: recognized the Bβ chain, but not the Aα or γ chains of Fg
[1]
  binding to other immobilized ECM proteins: failed to bind
[2]
  fibrin clot formation: inhibited fibrin clot formation in a concentration dependent manner
[2]; listed as SdrG
  fibrin clot formation: inhibit thrombin-induced fibrinogen coagulation
[3]
  FpA release by thrombin: no apparent interference
[3]; 1:1 ratio of rSdrG(50-597) to Fg
  FpB release by thrombin: significant decrease
[3]; 5:1 ratio (1.5 μM rSdrG(50-597))
  FpB release by thrombin: decrease in the amount of FpB released; also recorded: effectively able to inhibit the release of FpB
[3]; SdrG:Fg 1:1, 15 min
  Percentage of FpB released: 65.4%
[3]; SdrG:Fg 1:1, 60 min
  Percentage of FpB released: 45.2%
[3]; SdrG:Fg 2:1, 15 min
  Percentage of FpB released: 13.9%
[3]; SdrG:Fg 2:1, 60 min
  Percentage of FpB released: 17.4%
[3]; SdrG:Fg 5:1, 15 min
  Percentage of FpB released: <0.001%
[3]; SdrG:Fg 5:1, 60 min
  Percentage of FpB released: <0.001%

Reference: patent publication US6835378B2, “Method and compositions for inhibiting thrombin-induced coagulation” (The Texas A&M University System University, priority 2001, dated 2004)
